The source of these data is PMC6367273.

For experiment [1], the target named is LPHN1-S (FLAG-tagged splice variant of murine LPHN1 with a truncated intracellular tail) (mouse). Briefly: immunostaining of cells or tissue; HEK-LPHN1-S, HEK-WT and HEK-Puro cells incubated with FITC-K37-mTCAP-1 (1:400) in medium with HEPES pH 7.4 and 0.1% BSA for 12 h at 4°C, washed, fixed, stained with Cy3-tagged FLAG antibody; confocal microscopy; green pixels (intensity 20-255) per cell.

Experiment [2] shares this target.
The target is the same in experiment [3]. This is another data set of the same source.

As to FITC-tagged K37-mTCAP-1 (peptide), the green pixels per cell in experiment [1] amounted to 49.5 pixels/cell. In turn, “Mouse TCAP-1 (mTCAP-1), synthetic (peptide)” returned a cell height of HEK-LPHN1-S cells treated with 100 nM mTCAP-1 for 60 min against vehicle; no significant change in HEK-WT cells in experiment [2] of 39%. The substance also yielded a f-actin (Phalloidin red pixels per cell) in HEK-LPHN1-S cells treated with 100 nM mTCAP-1 for 60 min against vehicle; no significant change in HEK-WT cells in experiment [3] of 343%.
